Laboratory results published in US20260242721A1, “A SYNTHETIC CELLULAR ADVANCED SIGNAL ADAPTER (SCASA) SYSTEM” (Danmarks Tekniske Universitet, priority 2023, published 2026).

Columns and labels:
[1] = molecular target: Schizosaccharomyces pombe P-factor pheromone receptor (Mam2) (Schizosaccharomyces pombe) (UniProt Q00619); assay: cell-based or functional assay
[2] = molecular target: Aga2-HA-PAS40-(G4S)3-CD19-myc yeast surface display fusion protein (CD19.1 ECD displayed on SCASA yeast aAPCs) (synthetic construct, CD19 part modified from human); assay: cell-based or functional assay
[3] = molecular target: CD19 on the human CD19+ NALM6 B cell precursor leukemia cell line (human) (UniProt P15391); assay: cell-based or functional assay
[4] = test system: pheromone response pathway (PRP)
Description: To investigate the dose-response features of the selected promoters PMFA2, PFUS1, PAGA2, PFIG.1, PMFA1, PYCL076W, PHPF1, PIME4, PCSS1, PTDH3, PPGK1 and P6XLexOLEU2 upon GPCR stimulation the strains were pre-grown in SC (24 hrs.), whereafter, for each replicate, cells were transferred to 200 μL volumes comprising a 10-fold dilution series of α-factor (0-100 μM) (GenScript) dissolved in SC+1% DMSO, and stimulated for 5 hrs. (30° C., 250 r.p.m.). Flow cytometric measurement was done to quantify yEGFP levels (B525/45-A) and PRP-regulated morphological changes, denoted shmooing (SSC-A) using a NovoCyte Quanteon flow cytometer (Agilent). Data represents means of median fluorescence intensity (mMFI) for three biological replicates and standard deviations hereof. Two-way ANOVA with Tukey's multiple comparisons test was conducted for all conditions.

[5] = test system: CD19; assay: Yeast surface display (YSD) of CD19, antibody staining and flow cytometry; assay type: cell-based, Saccharomyces cerevisiae
Description: To investigate the different variants of CD19 modules, yeast cells were grown and, in some cases, stimulated to present CD19 differentially, whereafter they were stained with antibodies and assessed by flow cytometry. Flow cytometric measurement was done using a NovoCyte Quanteon flow cytometer (Agilent) to quantify CD19 by staining with mouse anti-CD19 (FMC63) (Absolute Antibody; Ab00613) and goat anti-mouse-AF647 (polyclonal) (Thermo Fisher; A-21236), detected in R667/30-H, as well as rabbit anti-HA (RM305) (Thermo Fisher; MA5-27915) and goat anti-rabbit-AF488 (polyclonal) (Thermo Fisher; A-11008), detected in B525/45-H (see FIG. 7), and to measure PRP-regulated morphological changes (SSC-H). […] Data represents means of median fluorescence intensity (mMFI) for three biological replicates and standard deviations hereof. Two-way ANOVA with multiple comparisons tests was conducted for all conditions. Histograms are representative replicates. No SSC-normalization was used in the evaluation of the effector module, unlike in Example 1, as it is the absolute response of all effects combined that constitute the total output that CAR T cells interpret and react to.
For conventional YSD using strain EBY100 and pCT-plasmid-based expression (Chao et al. 2006, Isolating and engineering human antibodies using yeast surface display. Nature Protocols, 1(2), 755-768), strains were pre-grown in SC −trp, then transferred to 5 mL SC −trp +2% Gal for induction of YSD or +2% Gluc as a negative control (24 hrs., 30° C., 250 r.p.m.). NALM6 was cultured in RPMI 1640 medium (ATCC modification) (Thermo Fisher) with 10% fetal bovine serum and 1% pen-strep (RPMI+10% FBS) at 37° C. with 5% CO2. For the investigation of PGAL1-titratability of DIX41 with pMAD58 and DIX74, strains were pre-grown in SC −ura and SC, respectively, then transferred to SC −ura and SC, respectively, with varying concentrations of galactose (0.0002%-2% Gal), using raffinose as compensating carbon source, and YSD was induced for 24 hrs. (30° C., 250 r.p.m.). Strains were similarly grown in 2% Gluc as negative controls. For the investigation of the strain library with constitutive and dynamically regulated expression of CD19 (Background strain/No YSD, PPGK1-Empty, PMFA2-CD19, PFUS1-CD19, PFIG.1-CD19, PMFA1-CD19, PHPF1-CD19, PTDH3-CD19, PPGK1-CD19) the strains were pre-grown in SC, whereafter, for each replicate, 50.000 cells were transferred to 300 μL volumes comprising a 10-fold dilution series of α-factor (0-100 μM) (GenScript) dissolved in SC+1% DMSO, and stimulated for 20 hrs. (30° C., 250 r.p.m.).

Sequence of UniProt P15391 (P15391 20-556): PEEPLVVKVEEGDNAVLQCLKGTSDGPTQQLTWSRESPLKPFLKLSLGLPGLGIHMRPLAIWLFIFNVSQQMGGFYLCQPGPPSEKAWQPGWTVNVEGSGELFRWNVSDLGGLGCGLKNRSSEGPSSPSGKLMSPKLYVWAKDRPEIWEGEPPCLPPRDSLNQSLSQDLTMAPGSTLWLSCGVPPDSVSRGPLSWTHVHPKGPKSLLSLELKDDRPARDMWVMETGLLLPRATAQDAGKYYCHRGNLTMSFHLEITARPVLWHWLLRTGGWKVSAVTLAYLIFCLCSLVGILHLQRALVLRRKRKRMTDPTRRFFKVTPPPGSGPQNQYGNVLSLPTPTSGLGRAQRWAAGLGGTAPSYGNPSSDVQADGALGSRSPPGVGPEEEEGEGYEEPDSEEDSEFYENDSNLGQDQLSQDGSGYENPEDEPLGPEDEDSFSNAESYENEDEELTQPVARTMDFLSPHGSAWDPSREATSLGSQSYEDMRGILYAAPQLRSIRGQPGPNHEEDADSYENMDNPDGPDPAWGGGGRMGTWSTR
Sequence of UniProt Q00619 (Q00619 other isoform, or with tags, fused parts or gaps): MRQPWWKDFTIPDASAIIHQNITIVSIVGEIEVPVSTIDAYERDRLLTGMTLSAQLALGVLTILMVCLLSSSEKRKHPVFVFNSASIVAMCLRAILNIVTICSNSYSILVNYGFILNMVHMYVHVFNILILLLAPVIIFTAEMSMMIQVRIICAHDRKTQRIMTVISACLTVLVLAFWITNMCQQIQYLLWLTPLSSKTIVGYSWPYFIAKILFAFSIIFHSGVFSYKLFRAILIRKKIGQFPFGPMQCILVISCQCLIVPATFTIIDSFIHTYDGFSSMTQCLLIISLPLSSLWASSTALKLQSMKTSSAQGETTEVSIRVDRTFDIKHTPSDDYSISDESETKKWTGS

P-factor (GenScript) (peptide) was tested. Which fold change of CD19 expression (PFUS1 cassette, anti-HA staining), strain DIX60, pH=5, 0-10 µM P-factor [1] did it give?
The fold change of CD19 expression (PFUS1 cassette, anti-HA staining), strain DIX60, pH=5, 0-10 µM P-factor was 249 fold.

For “anti-CD19 CAR (FMC63-CD8α-4-1BB-CD3ζ) (receptor)”, which fold specific activation of CAR+ Jurkat NFAT-Luc cells, yeast PFUS1-CD19 at 0.01 µM α-factor [2] is on record?
The fold specific activation of CAR+ Jurkat NFAT-Luc cells, yeast PFUS1-CD19 at 0.01 µM α-factor was 3.2 fold.

And the fold specific activation of CAR+ Jurkat NFAT-Luc cells, yeast PTDH3-CD19 at 0.001 µM α-factor [2]?
The fold specific activation of CAR+ Jurkat NFAT-Luc cells, yeast PTDH3-CD19 at 0.001 µM α-factor was 27.7 fold.

And the increase of CAR+ Jurkat NFAT-Luc activation relative to the uninduced condition, yeast PTDH3-CD19 at 0.1 µM α-factor [2]?
The increase of CAR+ Jurkat NFAT-Luc activation relative to the uninduced condition, yeast PTDH3-CD19 at 0.1 µM α-factor was 10.3 fold.

What about the increase of CAR+ Jurkat NFAT-Luc specific activation relative to the unstimulated condition, yeast PMFA2-CD19 at 0.01 µM α-factor [2] of the same molecule?
Its increase of CAR+ Jurkat NFAT-Luc specific activation relative to the unstimulated condition, yeast PMFA2-CD19 at 0.01 µM α-factor is 15.3 fold.

And the increase of CAR+ Jurkat NFAT-Luc specific activation relative to the unstimulated condition, yeast PMFA2-CD19 at 0.1 µM α-factor [2]?
Its increase of CAR+ Jurkat NFAT-Luc specific activation relative to the unstimulated condition, yeast PMFA2-CD19 at 0.1 µM α-factor is 14.5 fold.

And the increase of CAR+ Jurkat NFAT-Luc specific activation relative to the unstimulated condition, yeast PMFA2-CD19 at 1 µM α-factor [2]?
Its increase of CAR+ Jurkat NFAT-Luc specific activation relative to the unstimulated condition, yeast PMFA2-CD19 at 1 µM α-factor is 13.6 fold.

What about the increase of CAR+ Jurkat NFAT-Luc specific activation relative to the unstimulated state, yeast PFUS1-CD19 at 1 µM α-factor [2] of the same molecule?
The increase of CAR+ Jurkat NFAT-Luc specific activation relative to the unstimulated state, yeast PFUS1-CD19 at 1 µM α-factor was 3.1 fold.

What about the maximal fold specific activation of Jurkat NFAT-Luc cells without GPCR stimulation, yeast PMFA2-CD19, 90% CAR+ [2] of the same molecule?
Its maximal fold specific activation of Jurkat NFAT-Luc cells without GPCR stimulation, yeast PMFA2-CD19, 90% CAR+ is 5.5 fold.

And the maximal fold specific activation of Jurkat NFAT-Luc cells without GPCR stimulation, yeast PPGK1-CD19, 100% CAR+ [2]?
Its maximal fold specific activation of Jurkat NFAT-Luc cells without GPCR stimulation, yeast PPGK1-CD19, 100% CAR+ is 11.5 fold.

And the maximal fold specific activation of Jurkat NFAT-Luc cells without GPCR stimulation, yeast PTDH3-CD19, 70% CAR+ [2]?
Its maximal fold specific activation of Jurkat NFAT-Luc cells without GPCR stimulation, yeast PTDH3-CD19, 70% CAR+ is 12.8 fold.

And the maximal specific activation of 100% CAR+ Jurkat NFAT-Luc cells (luciferase), yeast PFUS1-CD19 pre-stimulated with 1 µM α-factor [2]?
Its maximal specific activation of 100% CAR+ Jurkat NFAT-Luc cells (luciferase), yeast PFUS1-CD19 pre-stimulated with 1 µM α-factor is 4.1 fold.

What about the maximal specific activation of 100% CAR+ Jurkat NFAT-Luc cells (luciferase), yeast PMFA2-CD19 pre-stimulated with 0.01 µM α-factor [2] of the same molecule?
The maximal specific activation of 100% CAR+ Jurkat NFAT-Luc cells (luciferase), yeast PMFA2-CD19 pre-stimulated with 0.01 µM α-factor was 22.3 fold.

And the maximal specific activation of 100% CAR+ Jurkat NFAT-Luc cells (luciferase), yeast PTDH3-CD19 pre-stimulated with 0.1 µM α-factor [2]?
Its maximal specific activation of 100% CAR+ Jurkat NFAT-Luc cells (luciferase), yeast PTDH3-CD19 pre-stimulated with 0.1 µM α-factor is 61.9 fold.

What about the maximal specific activation of CAR+ Jurkat NFAT-Luc cells by yeast PTDH3-CD19 relative to NALM6 [2] of the same molecule?
The maximal specific activation of CAR+ Jurkat NFAT-Luc cells by yeast PTDH3-CD19 relative to NALM6 was 2.2 fold.

And the maximal specific activation by NALM6 relative to any SCASA yeast aAPC without GPCR stimulation [3]?
The maximal specific activation by NALM6 relative to any SCASA yeast aAPC without GPCR stimulation was 2.2 fold.

What about the peaking activation intensity of Jurkat NFAT-Luc cells co-cultured with NALM6, 90% CAR+ [3] of the same molecule?
The peaking activation intensity of Jurkat NFAT-Luc cells co-cultured with NALM6, 90% CAR+ was 28.1 fold.

B1: PFIG.1: pheromone-responsive Saccharomyces cerevisiae promoter, SEQ ID NO: 9, processing module (yEGFP strain DIX25, CD19 strain DIX56) (nucleic acid, listed as Saccharomyces cerevisiae)
DNA: TTGAATGATCAACCAAACGCCGATATAGTCACTATTGGTGATAAAATTAAAATGCAGCTATTGAGAACCCATCCTAACAACATTAAATTGTCTATTAATGGAATTGGTAAAGATGCCCCAACTTTCCAAGAATCTGCTTTGATTGCCGATAAGTTATTGAGTGTCATGAAGGCCGGCACTTACCCAAAGATTTCCATTTTCTACAATGACCCAGTGTCTTCCCTATCTTTTGAACCATCTGAAAAACCGATCTTTAACGCCAAGACCATTGAACAATCCCCATCATTCGGCAAATTTGAGATCGACACGGACGCAAACGTTCCAAGAGATTTGTTTGAATATACTTTGGCTAACCAAATGTTGACAGCAATGGCTCAAGGTTATGCTGCTGAAATTTCCGCCAGAAGAAACGCTATGGATAACGCTTCCAAGAATGCCGGTGATATGATCAATCGTTACTCTATCTTGTACAACAGAACAAGACAAGCTGTCATTACTAATGAACTGGTTGATATTATTACTGGTGCTTCCTCTTTGGGATGATAAAAAAATCACCCTGCATTGCCTCTTTATTTGACGTTGTTTTTGTAGAACATGAAACGAATTTTGACTTGATGAGACGAAGTATATATCCAAAGAATACCTTAAATAGAAAAGGAAAGATAATAAATACTAAACACTACTATATATTCAGGTAAAATACAAAAATTATAACATTTTTAAAACTTTTTTTTTTTGAAAGTCCTTCTCGCTTTAGGATTTTTTCCCATTAAGATTATGATGGTTTCATGTATGTGTCAGTTAAAAAAAATATGGCTAAGTAGCAATGAAACGAACCAAGAAAATGAAAACAATATATAGTGCTGTTGAAATAACAAAGACATTGGTATATATTTGTAAAATGTCTGTTAAATGTTTTTTATCTCAGGTTCTTGCTTGTCTTTGGTAGAAGAAATTATAGTAAACAAACAAACAAACAAACAAAAAAAAAAAAAAAAAA
For B1, which “maximum fold change of yEGFP, unnormalized” value ([4]; 1 μM α-factor (peak)) is on record?
The value was 516.8±83.0 fold.

What about the “fold change of yEGFP, unnormalized” value ([4]; 100 μM α-factor) of the same molecule?
Its value is 482.6±98.5 fold.

What about the “maximum fold change of yEGFP, SSC-normalized” value ([4]; 100 μM α-factor (peak)) of the same molecule?
Its value is 128.8±7.2 fold.

What about the “fold change of induction of yEGFP, SSC-normalized” value ([4]; α-factor 0-100 μM, 5 hrs, excluding PRP-induced expression boost) of the same molecule?
Its value is 128.81±7.17 fold.

What about the “CD19 level at unstimulated conditions” value ([5]; no GPCR stimulation) of the same molecule?
Its value is “extremely low levels of CD19 at the limit of detection”.

And the “fold upregulation of CD19 display relative to unstimulated condition” value ([5]; α-factor 0-100 μM, 20 hrs, promoter driving CD19 in DIX41 background)?
Its value is 629.6±98.6 fold.
